# Source: the nanobody polyreactivity screen of Harvey et al. (2022)
# Assay: yeast display, Sf9 membrane polyspecificity reagent, FACS + sequencing; frameworks hold sequencing errors
# In short: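 Genes from sorted yeast were amplified by colony PCR, read by MiSeq 2 × 250 sequencing and filtered on CDR length. These cells carried a synthetic nanobody library in Saccharomyces cerevisiae BJ5465 and were sorted by FACS into low and high (top ~1%) gates on anti-HA and streptavidin fluorescence. Polyreactivity is labelled according to the gate of origin.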
row,Sequence,polyreactivity (PSR sort gate)
1,QVQLVESGGGLVQAGGSLRLSCAASGRIFSLNTLGWYRQAPGKERELVAAINRGGRSYYADSVKGRFTISRDNAKITVNLQMNSLKPEDTAVYYCAAEVVRQGSYRYGYWGQGTQVTVSS,high polyreactivity
2,QVQLVESGGGLDQAGGSLRLSCAASGRIGYYAMGWYRQAPGKETELVAAISYGGGSTYYADSVKGRFTISRDNAKNTVYLQLNSLKPEDTAVYYCAARWGKSWRGYGYWGQGTLVTVSS,high polyreactivity
3,QVQLVESGGGLVQAGGRLRLSCAASGFYLNAMGWYRQAPGKDRELVATITSSATNTYYADSVKGRFTISRDNAKNTVYLQMNSLKPEDTAVYYCNARYTSHTLADGVYLYDYWGQGTQVTVSS,low polyreactivity
4,QVQLVESGGGLVQAGGSLRLSCAASGSTFTWYAMGWYRQAPGKERELVADISYGGRSTYYADSVKGRFTISRDNAKNTVYLQMNSLKPEDTAVYYCAAESIPYYRYDYWGQGTQVTVSS,low polyreactivity
5,QVQLVESGGGLVQAGGSLRLSCAASGLIFRRYAMGWYIQAPGKEREFVAAIRYTGGGTYYADSVKGRFTISRDNAKNTVYLQMNRLKPEDTAVYYCNTVEYRWGYISKVPKYDYWGQGTQVTLSS,high polyreactivity
6,QVQRVESGGGLVQAGGSLRLSCAASGLIFYRYVMGWYRQAPGKETELVAAISGNGASTYYADSVKGRFTISRDNAKNTVYLQMHSLKPEDTAVYYCNADVYVSSKTHSSSPQWWGYDYWGQGTQVTVSS,low polyreactivity
7,QVQLVESGGGLVQAGGSLRLSFAASGSTFDWYVMGWYRQAPGKERELVAAINQGSGSTYYADSVKGRFTISRDNAKNTVYFQMNSLKPEDTAVYYCAADRYGAGYLYWPYDYWGQGTQVTVSS,low polyreactivity
8,QVQLVESGGGLVQAGGSLRLSCAASGFILSPYAMGWYRQAPGKERELGAVITISGGSTYYADSVKGRFTISRDNAKNTVYLQMNSLKPEDTAVYYCAADYYDLVYDYYYWGQGTQVTVSS,high polyreactivity
9,QVQLVESGGGLVQAGGSLRLSCAASGRIFEKYAMRWYREAPGKERELVAAMTRSGGRTYYADSVKGRFTISRDNAKNTVYLQMNSQKPEDTAVYYCAARYVSRFDWGQGTQVTVSS,high polyreactivity
10,QVQLVESGGGLVQAGGSLRLSCAASGFTLDPYAMGWYRQAPGKERELVAAIRLSGSSTYYADSVKGRFTISRDNAKNTVYLQMNSLKPEDTAVYYCAADGISHWMYRYDYWGQGTQVTVSS,low polyreactivity
11,QVQLVESGGGLVQAGGSLRLSCAASGITFYGKAMGWYREAPGKERELGAAITGGGGTNYADSVKGRFTISRDNAKKTVYLQMTSLKPEDTAVYYCNRDYFVWFQRGQYKRGSSWYDNWGQGTQVTVSS,low polyreactivity
12,QVQLVESGGGLVQAGGSLRLSCAASGSTFHAYAMGWYRQAPGKERELVAGISWSGGDTTYADSVKGRFTISGDNAKNTVYLQMNSLKPEDTAVYYCAAAGRDPDNYLILNYWGQGTQVTVSS,low polyreactivity
13,QVQLVESGGGLVQAGGSLRLSCAASGSIFSYYAMGWYRQAPGKERELVAAISGSGGSTYYADSVKGRFTISRDNAKNTVYLQMNSLKPDDNAVYSCAARYYAWGRRRTWDDYWGQGTQVTVSS,high polyreactivity
14,QVQLVESGGGLVQAGGSLRLSCAASGSTIVGYTMGWYRQAPGKERELVAAISRGGGSTYYADSVKGRFTISRDNAKNTVYLQMNSLKPEDTAVYYCNAYTYNRYYWGQGTQVTVSS,high polyreactivity
15,QVQLVESGGGLVQAGGSLRLSCAASGIIVSYYAMGWYRQAPGKERELVAAITSGGSTNYADSVKGRFTISRDNAKITVYLQMNSLKPEDTAVYYCAAERGDTAYRKYDYWGQGTQVTVSS,low polyreactivity
16,QVQLVESGGGLVQAGGSLRLSCAASGSIIGYYAMGWYRQAPGKECEFVAAITRSGARTYYADSLKGRFTISRDNAKNTVYLQMNSLKPEDTAVYYCAAGAYYRYTIEYDYWGQGTQVTVSS,high polyreactivity
17,QVQLVETVGCLVQAGGSLRLSSAASGRIFPYNAMGRYRQAPGKERELVAAIDWRDNTYYADSVKGRFTISRDNATNTVYLQMNSLIPEDTAVYDCNVDYTDYFLNKYDYWGQGTQVTVSS,low polyreactivity
18,QVQLVESGGGLVQAGGSLRLSCAASGSTFTFNAMGWYRQAPGKERELVAAIRWSTGGTYYADSVKGRFTISRDNAKNTVYLQMNSLKPEDTAVYYCAAQFVPYFYFSKYDYWGQGTQVTVSS,low polyreactivity
19,QVQLVESGGGLVQAGGSLRLSCAASGRTIDYNGMGWYRQAPGKEREMVAVISSSGGSTFYADSVKGRFTISRDNAKNTVYLQMNSLKPEDTAVYYSAADFIVAYTLHGSYDYWGQGTQVTVSS,low polyreactivity
20,QVQLVESGGGLVQAGGSLRLSCAASGRIFWDNAMGWYRQAPGKERELVAAISDSVVITYYADSVKGRFTISRDNAKNTVYLQMNSLKPEDTAVYYCAADKRGTVYLSSFWMDYWGQGTQVTVSW,low polyreactivity
21,QVQLVESGGGLVQAGGSLRISCAASGIFPAYDMGWYRQAPGKERELVASISSDGSTYYADSVKGRFTISRDNAKNTVYLQMNSLKPEDTAVYYCNDVAIEPYYYVVYDIFDYWGQGTQVTVSS,low polyreactivity
22,QVQRVESGGGLVQAGGSLRLRCAASGRTFMTNAMGWYRQAPGTERELVAAISSGASTNYADSVKGRFTISRDNAKNTVYLQMNSLNPEDTAVYYCGAQLTDYQSKTLSYDYWGQGTQVTVSS,low polyreactivity

row,Sequence,polyreactivity (PSR sort gate)
1,QVQLVESGGGLVQAGGSLRLSCAASGSIFGRYAMGWYRQAPGKERELVAAISANGGSTYYADSVKGRFTISRDNAKNTVYLQMNSLKPEDTAVYYCAAGSTRGYKLGYWGQGTQVTVSS,high polyreactivity
2,QVQLVEAVGGLVQAGGSLRLSCAASGNTYYGNAMGWYRQAPGKEREFVAAITIRTGSTYYADSVKGRFTISRDNAKNTVYLQMNSLKPDDTAVYYCAADAYWRWNWYDYWGQGTQVTVSS,high polyreactivity
3,QVQLVESGGGLVQAGGSLRLSCAASGRIFGGYGMGWYRPAPGKQRELVAAISSGGNTKYADSVKGRFTISRDNAKNTVYLQMNSLKPEDTAVYHCAAKFAQPDYRYDYWGQGTQVTVSS,high polyreactivity
4,QVQLVESGGGLVQAGGSLRLSCAASGRTFYSNAMGWYRQAPGKERELVAAISRRGGRTYYADSVKGRFTISRDNAKNTVYLQMNSLKPEDTAVYYCAADAYLYQPEDYYYWGQGTQVTVSS,high polyreactivity
5,QVQLVESGGGLVQAGGSLRLSCAASGSTFDTNDMGWDRQAPGKERELVAAISSGGDYADSVKGRFTISRDNAKNTVYLQLNSLKPEDTAVYYCAKADTKWGQGTQVTVSS,low polyreactivity
6,QVQHVESGGGLVQAGGSLRLSCAASGSIFVPYALGWSRQAPGKEREFVAVISLRGSRTYYADSVKGRFTISRDNAKNTVYLQMNSLKPEDTAVYYCATTGYRLRQATRYDYRGQGTQVTVSS,high polyreactivity
7,QVQLVESGGGLVQAGGSLRLSCAASGSTFNVNAMGWYRQSPGKERELVAAITSSGGSTNYADSVKGRFTFSRDNAKYTVYLQMNSLNPEDTAFYYCAAYAIYFSRLNLGYDYWGQGTQVTVSS,low polyreactivity
8,QVQLVESGGGLVQAGGSLRLSCAASGSTFRWYAMGWYRQAPGKERELVASITRGGGSTYYADSVKGRFTISRDNAKNTVYLQMNSLKPEDTAVYYCAKRSLWSYYEGYYYWGQGTQVTVSS,high polyreactivity
9,QVQLVESGGGLVQAGGSLRLSCAASGSIFRNYAMGWYRQAPGKERELVAAISRSGSSTFYADSVKGRFTISRDNAKNTVYLQMNSLKPEDTAVYYCAAVDYYTLTGYRYYWGQGTQVTVSS,high polyreactivity
10,QVQLVESGGGLVQAGGSLRLSCAASGRIFRNYAMGWYRQATGKERELVAAISTRSGSTYYADSVKGRSTISRDNAKNTVYLQMNSLKPEDTAVYYCNKVSVGRYYALYYWGQGTQVTVAS,high polyreactivity
11,QVQLVESGGGLVQAGGSLRLSCAASGRTLWANAMGWYRQAPGKERELVAAITYSGGSTHYADSVKGRFTISRDNAKNTVYLQMNSLKPEDTAVYYCNADYDSYYTYLYDYWGQGTQVTVSS,low polyreactivity
12,QVQLVDSGGGLVQAGGSLRLSCAASGSIFPPYAMGWYRQAPGKERELVAAITRSGGSTYYADSVKGRFTISRDNAKNTVYLQMNSLKPEDTAVYYCAARYPGGYGYWGQGTQVTVSS,high polyreactivity
13,QVQLVESGGGLVQAGGSLRLSCAASGFTFYANAKGWYRQAPGKERELVAAIDQSGTSTNYADSVKGRFTISRDNAKNTVYLQMNSLKPDDTAVYYCAADSSFYYYPLILFWGDYWGQGTQVTVSS,low polyreactivity
14,QVQLVESGGGLVQAGGSLRLSCAAYAMGWYRQAPGKERELVAAISSSGGSTYYADSVKGRFTISRDNAKNTVYLQMNSLKPEDTAVYYCARDPDTYFFPPTGYYTSGFDSWGQGTQVTVSS,low polyreactivity
15,QVQLVESCGGLVQAGGTLRLRCAASGFTFYPYSMGWYRQAPWKERELVAAITRGGITYYADSVKGRFTISRDYAKNTVYLQMKSLKPEDTAVYYCNAGWYVSYRWYRSDYWGQGTQVTVSS,high polyreactivity
16,QGQLVESGAGLVKAGGSLRISCAASGYTFPSNARAWYRHAPGTPRQLVAAISSGGRTNYADSLKGRFTISRDNAKNTVYLQMNRLKPEDTAVYNCNADGGPGYPSAYDYWVQGTQVTVSS,low polyreactivity
17,QVQLVESGGGLVQAGGSLRLSCAASGRTLSRYTMGWYRQAPGKERELVAAISTSGSTYYADSVKGRFTISRDNAKNTVYLQMNSLKPEDTAVYYCYAVRRYLQYATGYDYWGQGTQVTVSS,high polyreactivity
18,QVQLVESGGGLVQAGGSLRLSCAASGITFIDYAMGGYRQAPGKVRELVAAITVRGSTYYADSVKGRFTISRDNAKNTVYLQMNSLKPEDTAVYYCAADTYVAADSPVTGERDSFDYWGQGTQVTVSS,low polyreactivity
19,QVQLVESGGGLVQAGGSLRLSCAASGSTFVSYAMGWYRQAPGKERELVAAITWRGDSTYYADSVKGRFTLSRDNAKNTVYLQMNSLKPEDTAVYYCAADGRSWRYYSPYYYWGQGTQVTVSS,low polyreactivity
20,QVQLVESGGGLVQAGGSLRLSCAASGSTFGVNAMGWYRPAPGKERELVAAITYSGGSTYYADSVKGRFTISRDNAKNTVYLQMNSLKPEDTAVYYCATTWYFVASWYVAIYDYWGQGTQVTVSS,low polyreactivity
21,QVQLVESGGGLVQAGGSLRLSCAASGRTFRYNTMGWYRQAPGKERELVAALTYRGGRTYYADSVKGRFTISRDHAKNTVYLQMNSLKPEDTAVYYCARDYYGSVRFDHWGQGTQVTVSS,high polyreactivity
